Results reported in the supplement of paper PMC5998384.

Legend:
[1] = tested on: HeLa Kyoto; experiment: solubility in G1/S (NP-40 vs SDS abundance) (log2 ratio); higher = more soluble; details: cell cycle stage: G1/S
[2] = tested on: HeLa Kyoto; experiment: melting temperature (median over replicates), in situ; higher = more thermally stable
[3] = tested on: HeLa Kyoto; experiment: thermal stability score vs G1/S (z-score of summed log2 fold changes over temperatures); higher = more thermally stable than in G1/S
[4] = tested on: HeLa Kyoto; experiment: solubility change mitosis vs G1/S (difference of NP-40 vs SDS log2 ratios) (log2 ratio difference); higher = more soluble in mitosis
[5] = cell cycle stage: early G1 (4.5 h after nocodazole release)
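Throughout, for melting temperature (median over replicates), in situ: HeLa Kyoto cells synchronized by double thymidine or nocodazole block, proteins quantified by TMT10plex mass spectrometry, three independent biological replicates.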
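Throughout, for solubility change mitosis vs G1/S (difference of NP-40 vs SDS log2 ratios): synchronized HeLa Kyoto cells (double thymidine block for G1/S, nocodazole release for mitosis), protein amounts in NP-40 versus SDS lysates quantified by mass spectrometry, three biological replicates.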
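Throughout, for solubility in G1/S (NP-40 vs SDS abundance): HeLa Kyoto cells arrested at G1/S by double thymidine block, proteins quantified by TMT10plex mass spectrometry in mild NP-40 versus SDS extracts, three biological replicates.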
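Throughout, for thermal stability score vs G1/S (z-score of summed log2 fold changes over temperatures): synchronized HeLa Kyoto cells, proteins quantified by TMT10plex mass spectrometry, three biological replicates, mitosis taken 0.5 h after nocodazole release, G1/S directly after double thymidine block.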

Sequence of PSME2 (chain, as listed by the source): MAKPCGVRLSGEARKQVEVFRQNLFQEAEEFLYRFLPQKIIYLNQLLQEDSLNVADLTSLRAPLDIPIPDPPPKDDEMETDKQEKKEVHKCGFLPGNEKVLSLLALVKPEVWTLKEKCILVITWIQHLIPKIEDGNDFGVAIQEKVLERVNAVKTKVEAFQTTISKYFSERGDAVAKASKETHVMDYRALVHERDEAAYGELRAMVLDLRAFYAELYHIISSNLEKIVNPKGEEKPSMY

Row | Substance | solubility in G1/S (log2) [1] | melting temperature ([2]; cell cycle stage: G1/S) [°C] | melting temperature ([2]; cell cycle stage: mitosis) [°C] | thermal stability score [3, 5] | thermal stability score ([3]; cell cycle stage: mitosis) | solubility change mitosis (log2) [4]
1 | MDSLEEPQKKVFKARKTMRVSDRQQLEAVYKVKEELLKTDVKLLNGNHENGDLDPTSPLENMDYIKDKEEVNGIEEICFDPEGSKAEWKETPCILSVNVKNKQDDDLNCEPLSPHNITPEPVSKLPAEPVSGDPAPGDLDAGDPASGVLASGDSTSGDPTSSEPSSSDAASGDATSGDAPSGDVSPGDATSGDATADDLSSGDPTSSDPIPGEPVPVEPISGDCAADDIASSEITSVDLASGAPASTDPASDDLASGDLSSSELASDDLATGELASDELTSESTFDRTFEPKSVPVCEPVPEIDNIEPSSNKDDDFLEKNGADEKLEQIQSKDSLDEKNKADNNIDANEETLETDDTTICSDRPPENEKKVEEDIITELALGEDAISSSMEIDQGEKNEDETSADLVETINENVIEDNKSENILENTDSMETDEIIPILEKLAPSEDELTCFSKTSLLPIDETNPDLEEKMESSFGSPSKQESSESLPKEAFLVLSDEEDISGEKDESEVISQNETCSPAEVESNEKDNKPEEEEQVIHEDDERPSEKNEFSRRKRSKSEDMDNVQSKRRRYMEEEYEAEFQVKITAKGDINQKLQKVIQWLLEEKLCALQCAVFDKTLAELKTRVEKIECNKRHKTVLTELQAKIARLTKRFEAAKEDLKKRHEHPPNPPVSPGKTVNDVNSNNNMSYRNAGTVRQMLESKRNVSESAPPSFQTPVNTVSSTNLVTPPAVVSSQPKLQTPVTSGSLTATSVLPAPNTATVVATTQVPSGNPQPTISLQPLPVILHVPVAVSSQPQLLQSHPGTLVTNQPSGNVEFISVQSPPTVSGLTKNPVSLPSLPNPTKPNNVPSVPSPSIQRNPTASAAPLGTTLAVQAVPTAHSIVQATRTSLPTVGPSGLYSPSTNRGPIQMKIPISAFSTSSAAEQNSNTTPRIENQTNKTIDASVSKKAADSTSQCGKATGSDSSGVIDLTMDDEESGASQDPKKLNHTPVSTMSSSQPVSRPLQPIQPAPPLQPSGVPTSGPSQTTIHLLPTAPTTVNVTHRPVTQVTTRLPVPRAPANHQVVYTTLPAPPAQAPLRGTVMQAPAVRQVNPQNSVTVRVPQTTTYVVNNGLTLGSTGPQLTVHHRPPQVHTEPPRPVHPAPLPEAPQPQRLPPEAASTSLPQKPHLKLARVQSQNGIVLSWSVLEVDRSCATVDSYHLYAYHEEPSATVPSQWKKIGEVKALPLPMACTLTQFVSGSKYYFAVRAKDIYGRFGPFCDPQSTDVISSTQSS [ATF7IP] | 0.0405 | 49 | 49.8 | 0.103 | 1.25 | -0.146
2 | PSME4 | -0.391 | 52.1 | 52.2 | -0.516 | -0.817 | -0.0943
3 | MGCCSSASSAAQSSKREWKPLEDRSCTDIPWLLLFILFCIGMGFICGFSIATGAAARLVSGYDSYGNICGQKNTKLEAIPNSGMDHTQRKYVFFLDPCNLDLINRKIKSVALCVAACPRQELKTLSDVQKFAEINGSALCSYNLKPSEYTTSPKSSVLCPKLPVPASAPIPFFHRCAPVNISCYAKFAEALITFVSDNSVLHRLISGVMTSKEIILGLCLLSLVLSMILMVIIRYISRVLVWILTILVILGSLGGTGVLWWLYAKQRRSPKETVTPEQLQIAEDNLRALLIYAISATVFTVILFLIMLVMRKRVALTIALFHVAGKVFIHLPLLVFQPFWTFFALVLFWVYWIMTLLFLGTTGSPVQNEQGFVEFKISGPLQYMWWYHVVGLIWISEFILACQQMTVAGAVVTYYFTRDKRNLPFTPILASVNRLIRYHLGTVAKGSFIITLVKIPRMILMYIHSQLKGKENACARCVLKSCICCLWCLEKCLNYLNQNAYTATAINSTNFCTSAKDAFVILVENALRVATINTVGDFMLFLGKVLIVCSTGLAGIMLLNYQQDYTVWVLPLIIVCLFAFLVAHCFLSIYEMVVDVLFLCFAIDTKYNDGSPGREFYMDKVLMEFVENSRKAMKEAGKGGVADSRELKPMASGASSA [SLC44A1] | -0.0157 | 55.7 | – | -1.35 | -2.05 | -0.147
4 | MAVVIRLQGLPIVAGTMDIRHFFSGLTIPDGGVHIVGGELGEAFIVFATDEDARLGMMRTGGTIKGSKVTLLLSSKTEMQNMIELSRRRFETANLDIPPANASRSGPPPSSGMSSRVNLPTTVSNFNNPSPSVVTATTSVHESNKNIQTFSTASVGTAPPNMGASFGSPTFSSTVPSTASPMNTVPPPPIPPIPAMPSLPPMPSIPPIPVPPPVPTLPPVPPVPPIPPVPSVPPMTPLPPMSGMPPLNPPPVAPLPAGMNGSGAPMNLNNNLNPMFLGPLNPVNPIQMNSQSSVKPLPINPDDLYVSVHGMPFSAMENDVRDFFHGLRVDAVHLLKDHVGRNNGNGLVKFLSPQDTFEALKRNRMLMIQRYVEVSPATERQWVAAGGHITFKQNMGPSGQTHPPPQTLPRSKSPSGQKRSRSRSPHEAGFCVYLKGLPFEAENKHVIDFFKKLDIVEDSIYIAYGPNGKATGEGFVEFRNEADYKAALCRHKQYMGNRFIQVHPITKKGMLEKIDMIRKRLQNFSYDQREMILNPEGDVNSAKVCAHITNIPFSITKMDVLQFLEGIPVDENAVHVLVDNNGQGLGQALVQFKNEDDARKSERLHRKKLNGREAFVHVVTLEDMREIEKNPPAQGKKGLKMPVPGNPAVPGMPNAGLPGVGLPSAGLPGAGLPSTGLPGSAITSAGLPGAGMPSAGIPSAGGEEHAFLTVGSKEANNGPPFNFPGNFGGSNAFGPPIPPPGLGGGAFGDARPGMPSVGNSGLPGLGLDVPGFGGGPNNLSGPSGFGGGPQNFGNGPGSLGGPPGFGSGPPGLGSAPGHLGGPPAFGPGPGPGPGPGPIHIGGPPGFASSSGKPGPTVIKVQNMPFTVSIDEILDFFYGYQVIPGSVCLKYNEKGMPTGEAMVAFESRDEATAAVIDLNDRPIGSRKVKLVLG [RBM12] | 0.344 | 48.7 | 49.2 | 1.03 | 4.25 | -0.147
5 | PSME2 | 0.142 | 52.8 | 53.8 | -0.487 | 2.4 | 0.0782
